Molecular target: untagged wild type APOBEC3G (A3G) (human), Q9HC16
Assay: cross-linking; cleared lysate of transfected 293T cells treated with BM(PEO)3 (cysteine-reactive, 18 Å linker), 20°C, 1 h, quenched with DTT; SDS-PAGE and immunoblot for A3G; ~80 kD species; no RNase A, or RNase A after the crosslinking
Settings: remark: other sources report otherwise

stoichiometry N: 2
B1: untagged wild type APOBEC3G (A3G), Q9HC16 1-384 (natural protein)
chain: MKPHFRNTVERMYRDTFSYNFYNRPILSRRNTVWLCYEVKTKGPSRPPLDAKIFRGQVYSELKYHPEMRFFHWFSKWRKLHRDQEYEVTWYISWSPCTKCTRDMATFLAEDPKVTLTIFVARLYYFWDPDYQEALRSLCQKRDGPRATMKIMNYDEFQHCWSKFVYSQRELFEPWNNLPKYYILLHIMLGEILRHSMDPPTFTFNFNNEPWVRGRHETYLCYEVERMHNDTWVLLNQRRGFLCNQAPHKHGFLEGRHAELCFLDVIPFWKLDLDQDYRVTCFTSWSPCFSCAQEMAKFISKNKHVSLCIFTARIYDDQGRCQEGLRTLAEAGAKISIMTYSEFKHCWDTFVDHQGCPFQPWDGLDEHSQDLSGRLRAILQNQEN

From PMC2646141
